Measurements as given in paper PMC7242444, “Characterization of the zinc finger proteins ZMYM2 and ZMYM4 as novel B-MYB binding proteins” (Scientific Reports, 2020).

Target: T1, GFP-B-MYB (human, UniProt P10244 1-700)
T1 construct: B-MYB, human, full length, fused to eGFP; The truncated derivatives were cloned in peGFP-C1, 2 or 3, which would put GFP at the N-terminus; also called GFP/B-MYB fusion protein; peGFP-B-MYB; source: HEK293T, stably expressing (lentiviral) or transfected, in lysate
T1 sequence (looked up): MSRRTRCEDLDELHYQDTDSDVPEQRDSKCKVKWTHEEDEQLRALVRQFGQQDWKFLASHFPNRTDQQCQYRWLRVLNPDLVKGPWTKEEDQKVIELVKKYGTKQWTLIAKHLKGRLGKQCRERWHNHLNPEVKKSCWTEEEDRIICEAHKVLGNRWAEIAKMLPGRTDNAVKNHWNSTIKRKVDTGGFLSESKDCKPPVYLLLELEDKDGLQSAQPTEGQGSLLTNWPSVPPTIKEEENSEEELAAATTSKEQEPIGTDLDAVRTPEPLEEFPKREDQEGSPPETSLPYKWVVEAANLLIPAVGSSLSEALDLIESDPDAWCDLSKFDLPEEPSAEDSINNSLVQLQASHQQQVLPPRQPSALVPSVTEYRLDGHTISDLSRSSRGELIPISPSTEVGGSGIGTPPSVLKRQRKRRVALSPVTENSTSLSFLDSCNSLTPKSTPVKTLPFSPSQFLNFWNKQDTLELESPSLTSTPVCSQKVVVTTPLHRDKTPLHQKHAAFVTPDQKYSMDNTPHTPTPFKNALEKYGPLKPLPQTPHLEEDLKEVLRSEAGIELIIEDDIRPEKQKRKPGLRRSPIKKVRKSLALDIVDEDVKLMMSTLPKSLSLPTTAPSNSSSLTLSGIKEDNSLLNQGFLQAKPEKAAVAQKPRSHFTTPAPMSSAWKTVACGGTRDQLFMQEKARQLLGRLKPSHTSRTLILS
Test: co-IP; GFP-trap beads, 3 h at 4 °C, extracts of HEK293T cells in ELB buffer (50 mM Tris/HCl pH 7.5, 120 mM NaCl, 0.2% NP-40) expressing the GFP fusion bait; Western blot of bound proteins; in Fig. 3 cells pre-incubated with 10 μM BrdU and irradiated or not with UV-C
Details: partners not purified

fold increase of binding after UV irradiation (against non-irradiated cells, densitometry): 4.1 fold
B1: zinc finger MYM-type protein 4 (ZMYM4), endogenous (natural protein, human (endogenous in HEK293T), UniProt Q5VZL5 1-1548, looked up)
chain: MAEREVESGPRKRFEQKSGAVFDEIVENCGGIMDTEMSEDIDHNLTPTLDSMSYGMPNQTGSENSLLDEDDYFLNSGDLAGIPVVGSDNEDEQDFSSKDNLVSSIHTDDSLEVERRVTQHESDNENEIQIQNKLKKDFPKQFDQVSVFKSIRKDFSLVRENSKETFSGKEKNRDLTYEREKRLDKPHKDLDSRLKSSFFDKAANQVEETLHTHLPQTPETNFRDSSYPFANKESIGSELGNSFASNIRIKEEPLDDEYDKAMAPQQGLLDKIKDEPDNAQEYSHGQQQKTQEGELKISAVFSVSGSPLAPQLTTGFQPSLASSGMNKMLPSVPATAVRVSCSGCKKILQKGQTAYQRKGSTQLFCSTLCLTGYTVPPARPPPPLTKKTCSSCSKDILNPKDVISAQFENTTTSKDFCSQSCLSTYELKKKPIVTINTNSISTKCSMCQKNAVIRHEVNYQNVVHKLCSDACFSKFRSANNLTMNCCENCGGYCYSGSGQCHMLQIEGQSKKFCSSSCITAYKQKSAKITPCALCKSLRSSAEMIENTNSLGKTELFCSVNCLSAYRVKMVTSAGVQVQCNSCKTSAIPQYHLAMSDGSIRNFCSYSCVVAFQNLFNKPTGMNSSVVPLSQGQVIVSIPTGSTVSAGGGSTSAVSPTSISSSAAAGLQRLAAQSQHVGFARSVVKLKCQHCNRLFATKPELLDYKGKMFQFCGKNCSDEYKKINNVMAMCEYCKIEKIVKETVRFSGADKSFCSEGCKLLYKHDLAKRWGNHCKMCSYCLQTSPKLVQNNLGGKVEEFCCEECMSKYTVLFYQMAKCDACKRQGKLSESLKWRGEMKHFCNLLCILMFCNQQSVCDPPSQNNAANISMVQAASAGPPSLRKDSTPVIANVVSLASAPAAQPTVNSNSVLQGAVPTVTAKIIGDASTQTDALKLPPSQPPRLLKNKALLCKPITQTKATSCKPHTQNKECQTEDTPSQPQIIVVPVPVPVFVPIPLHLYTQYAPVPFGIPVPMPVPMLIPSSMDSEDKVTESIEDIKEKLPTHPFEADLLEMAEMIAEDEEKKTLSQGESQTSEHELFLDTKIFEKDQGSTYSGDLESEAVSTPHSWEEELNHYALKSNAVQEADSELKQFSKGETEQDLEADFPSDSFDPLNKGQGIQARSRTRRRHRDGFPQPRRRGRKKSIVAVEPRSLIQGAFQGCSVSGMTLKYMYGVNAWKNWVQWKNAKEEQGDLKCGGVEQASSSPRSDPLGSTQDHALSQESSEPGCRVRSIKLKEDILSCTFAELSLGLCQFIQEVRRPNGEKYDPDSILYLCLGIQQYLFENGRIDNIFTEPYSRFMIELTKLLKIWEPTILPNGYMFSRIEEEHLWECKQLGAYSPIVLLNTLLFFNTKYFQLKNVTEHLKLSFAHVMRRTRTLKYSTKMTYLRFFPPLQKQESEPDKLTVGKRKRNEDDEVPVGVEMAENTDNPLRCPVRLYEFYLSKCSESVKQRNDVFYLQPERSCVPNSPMWYSTFPIDPGTLDTMLTRILMVREVHEELAKAKSEDSDVELSD
notes: ZMYM4 (zinc finger MYM-type protein 4), endogenous in HEK293T cells; In extracts made without NEM the protein is de-SUMOylated; also called endogenous ZMYM4; source: endogenous, HEK293T lysate
